Results as given in patent US11912794B2, “Modulation of structured polypeptide specificity” (BicycleRD Limited, priority 2011, dated 2024).
Numbered stars: 1 amine (or outer) side, 2 acyl side, 3 side chain; on linkers, the order of the positions; unused ones are H or OH. Bridge positions count the residues as written; N and C are the ends. Ends that are not written are not given here. Peptide text beside a SMILES is read from it. TBMB = c1c(C[*:1])cc(C[*:3])cc1C[*:2]

How the values were obtained:
[1] = target: biotinylated human plasma Kallikrein (Homo sapiens, UniProt P03952); experiment: Phage binding assay of individual clones, randomisation of peptide domains; details: for Rank (sequences ranked according to Kallikrein binding): WPAR domain fixed, positions 1, 6, 7, 8, 9 & 10 randomised, top 50
biotinylated human plasma Kallikrein, sequence (P03952 20-638): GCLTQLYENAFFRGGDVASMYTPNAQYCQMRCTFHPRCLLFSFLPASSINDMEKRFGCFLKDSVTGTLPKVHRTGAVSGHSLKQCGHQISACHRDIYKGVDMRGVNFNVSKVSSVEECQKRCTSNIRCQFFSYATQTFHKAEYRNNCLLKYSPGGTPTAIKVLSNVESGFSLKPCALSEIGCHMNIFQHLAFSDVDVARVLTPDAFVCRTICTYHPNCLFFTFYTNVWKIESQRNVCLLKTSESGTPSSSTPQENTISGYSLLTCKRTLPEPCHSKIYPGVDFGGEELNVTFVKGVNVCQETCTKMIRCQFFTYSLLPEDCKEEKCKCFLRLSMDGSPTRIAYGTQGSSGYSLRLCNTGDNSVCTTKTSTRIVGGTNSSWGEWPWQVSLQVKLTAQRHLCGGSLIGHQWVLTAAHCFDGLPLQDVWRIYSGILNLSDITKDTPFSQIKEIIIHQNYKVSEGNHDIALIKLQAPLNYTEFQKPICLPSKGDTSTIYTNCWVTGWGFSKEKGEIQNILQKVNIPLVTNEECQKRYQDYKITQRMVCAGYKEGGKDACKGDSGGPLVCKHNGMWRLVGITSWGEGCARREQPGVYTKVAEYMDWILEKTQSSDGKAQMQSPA
Text: Library construction: Small phage libraries were generated according to the methods of Heinis et al as described in ‘Cloning of phage libraries’ above. The sficx3ba primer was modified such that the bicycle-encoding portion was based on a parent 5×5 bicycle (5×5: two 5-residue loops) DNA sequence with only 4-6 codons randomized to NNS. The randomized codons were those encoding the peptide domain/motif of interest.
Assay of binding of individual clones: Library transformant colonies, or selection output colonies, were picked and grown as individual cultures in 2TY broth containing selective antibiotic. The picked colonies were DNA-sequenced using a QIAgen PyroMark Q96 DNA sequencer to reveal the amino-acid substitution present in each clone, and were assayed for human plasma Kallikrein binding as follows. The phage-containing supernatant was harvested from the culture and phage were cyclised with tris bromomethyl benzene(TBMB) based on the methods of Heinis et al (Nature Chemical Biology vol. 5 pp 502-507 (2009)). The purified phage from this process were assayed for binding to biotinylated human plasma Kallikrein using a homogeneous plate-based binding assay; assay read-out measured on a BMG Labtech Pherastar FS plate reader. The quantitative binding data from duplicate assay samples was averaged (mean) and expressed as signal:background. Assay data shown is representative of at least 2 independent experiments. The assay data was correlated with the peptide sequences.
(§1) The WPAR (SEQ ID NO: 18) motif identified from Example 1 was analysed in the context of the 06-34-03 peptide, in order to identify alternatives or improvements to the WPAR (SEQ ID NO: 18) motif. A library was constructed where positions 1, 6, 7, 8, 9 &10 of 06-34-03 were fixed and positions 2, 3, 4 & 5 were randomised (see ‘Randomisation of peptide domains—Library construction’ in Methods above). Selections against human plasma Kallikrein were performed at a variety of stringencies (see Phage selections' in Methods above). All output sequences were identified and analysed for target binding (see ‘Randomisation of peptide domains—Assay of binding of individual clones’ in Methods above). Table 17 lists each unique sequence, its relative abundance in the selection output (frequency), and a rank number according to target binding strength.
Selections against human plasma Kallikrein were performed with this library in order to study the non-WPAR (SEQ ID NO: 18) determinants of Kallikrein binding, and to isolate the optimal WPAR (SEQ ID NO: 18)-containing peptide sequence. Over 150 selection output sequences were isolated and screened for binding to human plasma Kallikrein (as described in Methods above). The sequences were ranked in order of Kallikrein binding and the top 50 sequences were aligned in Table 19. […]

Biotinylated hPK = target: T1, Biotinylated hPK (Homo sapiens, UniProt P03952); experiment: Phage selections, abundance of sequences in selection outputs; assay type: binding
T1 construct: IHPKA, from human plasma; purchased Innovative Research, Novi, MI, USA IHPKA; host or cells: human plasma
T1 sequence (P03952 20-638): as above
Protocol: Glycerol stocks of phage libraries were diluted to OD600=0.1 in 500 ml 2YT/chloramphenicol (30 μg/ml) cultures and phage were produced at 30° C. over night (15-16 hrs). Phage were purified and chemically modified as described in Heinis, et al., Nat Chem Biol 2009, 5 (7), 502-7 Biotinylated hPK (3 μg) (IHPKA, from human plasma, Innovative Research, Novi, MI, USA) was incubated with 50 μl pre-washed magnetic streptavidin beads (Dynal, M-280 from Invitrogen, Paisley, UK) for 10 minutes at RT. […] Blocked beads were then mixed with the blocked chemically modified phage and incubated for 30 minutes on a rotating wheel at RT. Beads were washed 8 times with washing buffer containing 0.1% Tween 20 and twice with washing buffer before incubation with 100 μl of 50 mM glycine, pH 2.2 for 5 minutes. Eluted phage were transferred to 50 μl of 1 M Tris-Cl, pH 8 for neutralization, incubated with 30 ml TG1 cells at OD600=0.4 for 90 minutes at 37° C. and the cells were plated on large 2YT/chloramphenicol plates. One or two additional rounds of panning were performed using the same procedures. In the second round of selection, neutravidin-coated magnetic beads were used to prevent the enrichment of streptavidin-specific peptides. The neutravidin beads were prepared by reacting 0.8 mg neutravidin (Pierce, Rockford, IL, USA) with 0.5 ml tosyl-activated magnetic beads (Dynal, M-280 from Invitrogen, Paisley, UK) according to the supplier's instructions.
as §1

Row | Molecule | Rank (sequences ranked according to Kallikrein binding) [1] | also measured
1 | CC(C)C[C@@H]1NC(=O)[C@H](CC(=O)O)NC(=O)[C@H](CCC(N)=O)NC(=O)[C@H](Cc2c[nH]cn2)NC(=O)[C@H]([C@@H](C)O)NC(=O)[C@@H]2CSCc3cc(cc(c3)CSC[C@@H](C(=O)N[C@@H](C)C(N)=O)NC1=O)CSC[C@H](NC(=O)[C@H](C)N)C(=O)N[C@@H](CO)C(=O)N[C@@H](Cc1c[nH]c3ccccc13)C(=O)N1CCC[C@H]1C(=O)N[C@@H](C)C(=O)N[C@@H](CCCNC(=N)N)C(=O)N2 [Peptide 06-34-03] (H-ACSWPARCTHQDLCA-NH2; linker 2-8-14 via TBMB; N-terminus and C-terminus assumed) | – | Kallikrein binding in target binding assay [1]: one of the best sequences
2 | SEQ ID NO: 115 (CNWPARCTHQDLC; Synthetic sequence Kallikrein binder containing a WPAR motif) | 1 | –
3 | SEQ ID NO: 116 (CHWPARCTHQDLC; Synthetic sequence Kallikrein binder containing a WPAR motif) | 3 | –
4 | SEQ ID NO: 117 (CPWPARCTHQDLC; Synthetic sequence Kallikrein binder containing a WPAR motif) | 4 | –
5 | SEQ ID NO: 118 (CSWPARCTHADLC; Synthetic sequence Kallikrein binder containing a WPAR motif) | 5 | –
6 | SEQ ID NO: 119 (CSWPARCTHDDLC; Synthetic sequence Kallikrein binder containing a WPAR motif) | 6 | –
7 | SEQ ID NO: 120 (CAWPARCTHTDLC; Synthetic sequence Kallikrein binder containing a WPAR motif) | 7 | –
8 | SEQ ID NO: 121 (CQWPARCLHTDLC; Synthetic sequence Kallikrein binder containing a WPAR motif) | 8 | –
9 | SEQ ID NO: 122 (CLWPARCTHQDLC; Synthetic sequence Kallikrein binder containing a WPAR motif) | 9 | –
10 | SEQ ID NO: 123 (CTWPARCTHTDLC; Synthetic sequence Kallikrein binder containing a WPAR motif) | 10 | –
11 | SEQ ID NO: 124 (CHWPARCTHQELC; Synthetic sequence Kallikrein binder containing a WPAR motif) | 11 | –
12 | SEQ ID NO: 125 (CAWPARCLHDDLC; Synthetic sequence Kallikrein binder containing a WPAR motif) | 12 | –
13 | SEQ ID NO: 126 (CSWPARCLHTDLC; Synthetic sequence Kallikrein binder containing a WPAR motif) | 13 | –
14 | SEQ ID NO: 127 (CAWPARCTHVDLC; Synthetic sequence Kallikrein binder containing a WPAR motif) | 14 | –
15 | SEQ ID NO: 128 (CAWPARCTHTDFC; Synthetic sequence Kallikrein binder containing a WPAR motif) | 15 | –
16 | SEQ ID NO: 129 (CMWPARCMHQDLC; Synthetic sequence Kallikrein binder containing a WPAR motif) | 16 | –

Row | Molecule | Rank (sequences ranked according to Kallikrein binding) [1] | also measured
17 | SEQ ID NO: 130 (CAWPARCTHADLC; Synthetic sequence Kallikrein binder containing a WPAR motif) | 17 | –
18 | SEQ ID NO: 131 (CQWPARCMHQDMC; Synthetic sequence Kallikrein binder containing a WPAR motif) | 18 | –
19 | SEQ ID NO: 132 (CQWPARCTHSDLC; Synthetic sequence Kallikrein binder containing a WPAR motif) | 19 | –
20 | SEQ ID NO: 133 (CLWPARCTHADLC; Synthetic sequence Kallikrein binder containing a WPAR motif) | 20 | –
21 | SEQ ID NO: 134 (CRWPARCTHQDLC; Synthetic sequence Kallikrein binder containing a WPAR motif) | 21 | –
22 | SEQ ID NO: 135 (CQWPARCMHQELC; Synthetic sequence Kallikrein binder containing a WPAR motif) | 22 | –
23 | SEQ ID NO: 136 (CTWPARCLHQDLC; Synthetic sequence Kallikrein binder containing a WPAR motif) | 23 | –
24 | SEQ ID NO: 137 (CSWPARCTHSHLC; Synthetic sequence Kallikrein binder containing a WPAR motif) | 24 | –
25 | SEQ ID NO: 138 (CVWPARCTHQDLC; Synthetic sequence Kallikrein binder containing a WPAR motif) | 25 | –
26 | SEQ ID NO: 139 (CTWPARCTHADLC; Synthetic sequence Kallikrein binder containing a WPAR motif) | 26 | –
27 | SEQ ID NO: 140 (CHWPARCMHQDLC; Synthetic sequence Kallikrein binder containing a WPAR motif) | 27 | –
28 | SEQ ID NO: 141 (CPWPARCTHTDLC; Synthetic sequence Kallikrein binder containing a WPAR motif) | 28 | –
29 | SEQ ID NO: 142 (CAWPARCTHYDLC; Synthetic sequence Kallikrein binder containing a WPAR motif) | 29 | –
30 | SEQ ID NO: 143 (CPWPARCTHQNLC; Synthetic sequence Kallikrein binder containing a WPAR motif) | 30 | –
31 | SEQ ID NO: 144 (CSWPARCTHTELC; Synthetic sequence Kallikrein binder containing a WPAR motif) | 31 | –
32 | WSAR: phage clone: WSAR at positions 2-5 within the 06-34-03 sequence, TBMB-cyclised (also: TBMB-cyclised within the 06-34-03 context, the cysteines lie outside this motif) | – | Relative abundance of motif in selection output (Biotinylated hPK; 2nd stringency from High (1st value of cell)): 3%; Relative abundance of motif in selection output (Biotinylated hPK; 3rd stringency from High (2nd value of cell)): 3%; Relative abundance of motif in selection output (Biotinylated hPK; 4th stringency from High (3rd value of cell)): 7%; Relative abundance of motif in selection output (Biotinylated hPK; 5th stringency from High (4th value of cell)): 6%; Relative abundance of motif in selection output (Biotinylated hPK; stringency High): 3%; Relative abundance of motif in selection output (Biotinylated hPK; stringency LOW): 11%
